Laboratory results published in paper PMC8266564.

Biological target: T1, GFP-dRNH1 (catalytically inactive RNase H1) (Homo sapiens, UniProt O60930 28-286, D210N)
T1 sequence: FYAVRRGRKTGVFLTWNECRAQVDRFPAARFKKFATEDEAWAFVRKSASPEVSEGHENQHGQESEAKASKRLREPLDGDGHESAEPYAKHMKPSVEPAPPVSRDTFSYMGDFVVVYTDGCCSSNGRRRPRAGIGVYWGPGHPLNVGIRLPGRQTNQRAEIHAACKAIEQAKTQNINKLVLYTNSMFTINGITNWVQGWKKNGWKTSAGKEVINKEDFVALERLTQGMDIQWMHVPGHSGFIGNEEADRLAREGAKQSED
Experiment: EMSA

B1: 60-bp RNA-DNA hybrid (RNA60/DNA60) (DNA:RNA)
RNA: GUUGUAACGACGGCCAGUGCCAAGUUCGGAUCGACGCUCGACUCUAGAGGAUCCCGGUAC
DNA: GTACCGGGATCCTCTAGAGTCGAGCGTCGATCCGAACTTGGCACTGGCCGTCGTTACAAC
- binding result: binds
